Measured values published in patent US20230374114A1 (published 2023).
Like-named read-outs stand apart in the source and are kept apart here.

Legend:
Assay in all cases: BLI
[1] = target: T1, Biotinylated SARS-CoV-2 S1 protein (ACRO, S1N-C82E8) (UniProt P0DTC2 16-685)
[2] = target: T1, Biotinylated SARS-CoV-2 S1 protein …; remark: listed apart in the source
[3] = target: T1, Biotinylated SARS-CoV-2 S1 protein …; remark: listed apart in the source
[4] = target: T1, Biotinylated SARS-CoV-2 S1 protein …; remark: listed apart in the source
[5] = target: T1, Biotinylated SARS-CoV-2 S1 protein …; remark: listed apart in the source
[6] = target: T1, Biotinylated SARS-CoV-2 S1 protein …; remark: listed apart in the source

B1: Ab 23 scFv-Fc (scFv, V domains shown)
VH: EVQLVQSGAEVKKPGSSVKVSCRSSGGTFSTYGITWVRQAPGQGLEWMGRIIPSLGIPNYAQKFQGRVTITADTSVSTAWMELSSLESDDTAIYYCARENIDLATNDFWGQGTLVTVSS
VL: QSALTQPPSASGSPGQSVTISCTGTSRDIGAYGYVSWYQQVPGKAPKLIIYEVRNRPSGVSSRFSGSKSGNTASLTISGLQAEDEADYYCSSYTSSSTLDVVFGGGTKLTVL
[1]
  Kd: 338 pM
[2]
  Kd: 338 pM

B2: Ab 12 scFv-Fc (S1-R3-T1-H7) (scFv, V domains shown)
VH: EVQLVESGPGVVSPSATLFLTCSVSGGSIRTHSWNWIRQPPGKPLEWIGFIHHSGATNKNPSLKSRVTISSDTSKNEFSLTLTSVTAADTAVYYCARGPGILSYWSRGTLVTVSS
VL: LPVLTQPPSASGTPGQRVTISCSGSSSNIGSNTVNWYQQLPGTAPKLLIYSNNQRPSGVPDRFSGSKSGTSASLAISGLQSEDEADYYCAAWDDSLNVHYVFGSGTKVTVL
[3]
  Kd: < 1 pM
[4]
  Kd: < 1 pM
[5]
  Kd: < 1 pM
[6]
  Kd: < 1 pM
[2]
  Kd: < 1 pM

B3: Ab 28 scFv-Fc (scFv, V domains shown)
VH: QVTLKESGPGLVNPSETLSLTCTVSGASISNSFWSWIRQSPGKGLEWIGYTSYSGNSIYNPSLKSRLTMSIDTSKNQLSLNLRSLTAADTAVYYCARREWIKGHFDYWGQGTLVTVSS
VL: NFMLTQPHSVSESPGKTVTISCTGSGGSIASNYVQWYQQRPGSAPTTVIYEDNQRPSGVPDRFSGSIDSSSNSASLTISGLKTEDEADYYCQSYDSSNPVVFGGGTKLTVL
[1]
  Kd: < 1 pM
[2]
  Kd: < 1 pM

B4: Ab_17 (scFv, V domains shown)
VH: QVQLVQSGGGVVQPGRSLRLSCAASGFTFDDYAMHWVRQVPGKGLEWVSGIDWNSGVIGYADSVKGRFTISRDNVKNSLYLQMNSLRTEDSALYYCAKDIGPGGSGSYYAFDIWGQGTTVTVSS
VL: QSALTQPASVSGSPGQSITISCTGTSSDVGGSKYVSWYQQHPGKAPKVMIYDVTKRPSGVPDRFSGSKSGNTASLTISGLQAEDEADYYCAAWDDSLNGVVFGGGTKLTVL
[1]
  Kd: 716 pM
[2]
  Kd: 716 pM
